In article PMC8241838:

Target: trimeric fusion protein PA-sfGFP-tLM511, O15230;P07942;P11047
Test: flow cytometry on cells
Conditions: 0.5 mM Mn2+; for response (arbitrary units/cell): 30 nM sfGFP-tLM511, parent: est. 3.0, read off a plot

| Substance | response (arbitrary units/cell) | ratio to parent |
| --- | --- | --- |
| human α6β1 integrin transiently expressed on Expi293F cells, wild type (from UniProt P05556) α6:D205A | 1.4 | 4.8 |
| human α6β1 integrin transiently expressed on Expi293F cells, wild type (from UniProt P05556) α6:E219A |  | 10.7 |
| human α6β1 integrin transiently expressed on Expi293F cells, wild type (from UniProt P05556) α6:E221A | 2.1 | 2.6 |
